Three molecules from patent US20240141039A1 (AGENUS, published 2024) can be followed below.

Where two headings read alike, the source gives them in different places.

The target of experiment [1] is T1, wild type full-length cynomolgus monkey TIGIT expressed on CHO cells (cynomolgus monkey, UniProt A0A7N9I9V4 89-312).
T1 construct: whole, on cells; also called cynomolgus TIGIT-CHO cells
Description: flow cytometry, blocking of human CD155-Fc-PE binding to CHO cells expressing cynomolgus TIGIT. For orientation: In flow cytometry, cells or beads pass a laser one at a time.

Experiment [2] addresses T1, wild type full-length cynomolgus monkey …. The experiment can be described thus: flow cytometry on CHO cells expressing cynomolgus TIGIT, PE anti-human IgG Fc detection.
Experiment [3] has the same target. Description: flow cytometry, blocking of CD155-Fc-PE binding to cynomolgus TIGIT CHO cells, geomean of 3 experiments. As for the experimental part:
(§1) A 4× concentrated intermediate stock of each multispecific molecule was prepared in a microplate. Antibodies were serially diluted 1-to-4 in FACS buffer. […] Lastly, 25 μL of cynomolgus TIGIT-CHO cells, prepared as described above, were added to each well. After a 30-minute incubation on ice, the cells were washed twice with cold FACS Buffer, and the cells were analyzed by flow cytometry (BD LSR Fortessa Flow Cytometer). The data were analyzed using the FlowJo software by sequentially gating on the FSC-A vs. SSC-A and SSC-H vs. SSC-A. Mean fluorescence intensity (MFI) values for PE were calculated, and the data were plotted by GraphPad Prism software and analyzed as described above.

Experiment [4] has as its target T2, wild type full-length human TIGIT expressed on cells (human, UniProt Q495A1 22-244).
T2 construct: whole, on cells; also called human TIGIT-CHO; human TIGIT CHO cells
T2 sequence (looked up): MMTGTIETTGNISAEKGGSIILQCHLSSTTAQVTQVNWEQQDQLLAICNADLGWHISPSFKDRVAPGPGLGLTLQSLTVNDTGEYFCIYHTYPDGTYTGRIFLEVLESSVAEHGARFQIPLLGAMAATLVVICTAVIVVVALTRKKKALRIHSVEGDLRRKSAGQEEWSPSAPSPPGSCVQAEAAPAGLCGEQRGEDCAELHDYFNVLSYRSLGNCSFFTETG
Description: flow cytometry, blocking of CD155-Fc-PE binding to human TIGIT CHO cells, geomean of 3 experiments. As for the experimental part: as §1, with “antibody” for “multispecific molecule”, “human” for “cynomolgus”

Experiment [5] has as its target T1, wild type full-length cynomolgus monkey …. The experiment can be described thus: flow cytometry, blocking of human CD155-Fc-PE binding to CHO cells expressing cynomolgus TIGIT. The method, then: as §1
This is another data set of the same source.

For experiment [6], the target named is T3, full-length ECD of human TIGIT (His-tagged) (human).
T3 construct: also called His-tagged human TIGIT; human TIGIT extracellular domain
T3 chain: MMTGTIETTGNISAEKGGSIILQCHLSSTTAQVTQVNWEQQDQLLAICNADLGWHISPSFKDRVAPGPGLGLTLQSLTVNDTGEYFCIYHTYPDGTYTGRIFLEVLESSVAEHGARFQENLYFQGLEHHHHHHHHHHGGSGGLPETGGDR
The experiment can be described thus: SPR Biacore T200, Protein A capture, 1:1 model, experiment #1. The method, then: (§2) Briefly, surface plasmon resonance experiments were performed using a Biacore T200 instrument, and the association rate (kₐ), dissociation rate (kd), and dissociation constant (KD) were calculated from each experiment using a 1:1 binding model with Biacore T200 Evaluation Software.
(§3) Antibodies were captured using a 30-sec injection at a flow rate of 10 μl/min to reach about 500 resonance units (RUs). […] The sensor chip was regenerated between cycles with two 30-sec injections of 10 mM glycine, pH 1.5. Sensorgrams were evaluated and fit to a simple Langmuir 1:1 interaction model using the global data analysis option of BIAevaluation 3.0 software. Data quality was verified by visually inspecting deviations and curve fitting, and by evaluating the parameters of Rₘₐₓ, Chi2, and Tc.
In general terms: SPR reads the build-up and loss of mass on a sensor chip optically.

Experiment [7] has as its target T4, full-length ECD of cynomolgus monkey TIGIT (His-tagged) (cynomolgus monkey).
T4 construct: also called His-tagged cynomolgus monkey TIGIT; cyno TIGIT extracellular domain
The description is as above. As for the experimental part: as §2, §3

In experiment [8] the target is T2, wild type full-length human TIGIT …. Description: flow cytometry, blocking of CD155-Fc-PE binding to human TIGIT CHO cells, geomean of 3 experiments. As for the experimental part:
as §1, with “1-to-3” for “1-to-4”, “human” for “cynomolgus”
This is another data set of the same source.

Experiment [9] concerns the target T3, full-length ECD of human TIGIT …. The experiment can be described thus: SPR Biacore T200, Protein A capture, 1:1 model, experiment #2. As for the experimental part:
as §2
Multispecific molecules were captured using a 30-sec injection at a flow rate of 10 μl/min to reach about 1000 resonance units (RUs). […] The sensor chip was regenerated between cycles with two 30-sec injections of 10 mM glycine, pH 1.5. Sensorgrams were evaluated and fit to a simple Langmuir 1:1 interaction model using the global data analysis option of BIAevaluation 3.0 software. Data quality was verified by visually inspecting deviations and curve fitting, and by evaluating the parameters of Rₘₐₓ, Chi2, and Tc.

In experiment [10] the target is T2, wild type full-length human TIGIT …. The experiment can be described thus: flow cytometry, blocking of human CD155-Fc-PE binding to CHO cells expressing human TIGIT. As for the experimental part:
as §1, with “1-to-3” for “1-to-4”, “human” for “cynomolgus”

T1 sequence (A0A7N9I9V4 entry or part of it): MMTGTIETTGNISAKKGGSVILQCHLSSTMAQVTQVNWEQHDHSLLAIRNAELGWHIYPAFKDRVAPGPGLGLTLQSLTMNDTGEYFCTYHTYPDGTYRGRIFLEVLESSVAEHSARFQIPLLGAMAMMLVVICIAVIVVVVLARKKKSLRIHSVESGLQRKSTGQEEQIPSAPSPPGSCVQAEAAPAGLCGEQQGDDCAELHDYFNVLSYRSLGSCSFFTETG

B1: anti-TIGIT×CD96 multispecific molecule BA123 (bispecific antibody, human IgG1, kappa, lambda)
heavy 1: QVQLVQSGAEVKKPGASVKVSCKASGYTFTSYGISWVRQAPGQGLEWMGWISAYNANTNYAQKLQGRVTMTTDTSTSTAYMELRSLRSDDTAVYYCARSAGVLGGMDVWGRGTLVTVSSASTKGPSVFPLAPSSKSTSGGTAALGCLVKDYFPEPVTVSWNSGALTSGVHTFPAVLQSSGLYSLSSVVTVPSSSLGTQTYICNVNHKPSNTKVDKRVEPKSCDKTHTCPPCPAPELLGGPDVFLFPPKPKDTLMISRTPEVTCVVVDVSHEDPEVKFNWYVDGVEVHNAKTKPREEQYNSTYRVVSVLTVLHQDWLNGKEYKCKVSNKALPAPIEKTISKAKGQPREPQVYTLPPSREEMTKNQVSLSCAVKGFYPSDIAVEWESNGQPENNYKTTPPVLDSDGSFFLVSKLTVDKSRWQQGNVFSCSVMHEALHNHYTQKSLSLSPG
light 1: not shown
heavy 2: EVQLVQSGAEVKKPGSSVKVSCKASGYTFASYGISWVRQAPGQGLEWMGGITPFFNRVDVAEKFQGRVTITADKSTSTAYIELSSLRSEDTAVYYCARDLRRGGVGDAFDIWGRGTLVTVSSASTKGPSVFPLAPSSKSTSGGTAALGCLVKDYFPEPVTVSWNSGALTSGVHTFPAVLQSSGLYSLSSVVTVPSSSLGTQTYICNVNHKPSNTKVDKRVEPKSCDKTHTCPPCPAPELLGGPDVFLFPPKPKDTLMISRTPEVTCVVVDVSHEDPEVKFNWYVDGVEVHNAKTKPREEQYNSTYRVVSVLTVLHQDWLNGKEYKCKVSNKALPLPEEKTISKAKGQPREPQVYTLPPSREEMTKNQVSLWCLVKGFYPSDIAVEWESNGQPENNYKTTPPVLDSDGSFFLYSKLTVDKSRWQQGNVFSCSVMHEALHNHYTQKSLSLSPG
light 2: QSALTQPRSVSGSPGQSVTISCTGTSPDVGSHAYRSWYQQHPGKAPKLMIYEVSYRPSGVSNRFSGSKSGNTASLTISGLQAEDEADYYCSSYPPSSATVFGAGTKLTVLGQPKAAPSVTLFPPSSEELQANKATLVCLISDFYPGAVTVAWKADSSPVKAGVETTTPSKQSNNKYAASSYLSLTPEQWKSHRSYSCQVTHEGSTVEKTVAPTEC
notes: copies: 1 + 1 + 1 + 1
Turning to B1, the “IC50 (read off the curve)” value in [1] is ~2 µg/mL.

B2: anti-TIGIT monospecific antibody BA148 (antibody, human IgG1, lambda)
heavy: EVQLVQSGAEVKKPGSSVKVSCKASGYTFASYGISWVRQAPGQGLEWMGGITPFFNRVDVAEKFQGRVTITADKSTSTAYIELSSLRSEDTAVYYCARDLRRGGVGDAFDIWGRGTLVTVSSASTKGPSVFPLAPSSKSTSGGTAALGCLVKDYFPEPVTVSWNSGALTSGVHTFPAVLQSSGLYSLSSVVTVPSSSLGTQTYICNVNHKPSNTKVDKRVEPKSCDKTHTCPPCPAPELLGGPDVFLFPPKPKDTLMISRTPEVTCVVVDVSHEDPEVKFNWYVDGVEVHNAKTKPREEQYNSTYRVVSVLTVLHQDWLNGKEYKCKVSNKALPLPEEKTISKAKGQPREPQVYTLPPSREEMTKNQVSLTCLVKGFYPSDIAVEWESNGQPENNYKTTPPVLDSDGSFFLYSKLTVDKSRWQQGNVFSCSVMHEALHNHYTQKSLSLSPGK
light: QSALTQPRSVSGSPGQSVTISCTGTSPDVGSHAYRSWYQQHPGKAPKLMIYEVSYRPSGVSNRFSGSKSGNTASLTISGLQAEDEADYYCSSYPPSSATVFGAGTKLTVLGQPKAAPSVTLFPPSSEELQANKATLVCLISDFYPGAVTVAWKADSSPVKAGVETTTPSKQSNNKYAASSYLSLTPEQWKSHRSYSCQVTHEGSTVEKTVAPTEC
notes: IgG1; also called anti-TIGIT IgG1 antibody BA148
In general, EC50 (read off the curve) refers to the concentration needed to bring the measured effect to its halfway point. Broadly, the IC50 is the midpoint of a concentration-inhibition curve. One may read the Kd as the equilibrium constant for the complex coming apart. Broadly, the koff is a measure of how fast the partners let go of each other. In general, kon refers to a measure of how fast the partners come together. As for B2, the “EC50 (read off the curve)” value in experiment [2] is ~0.04 µg/mL. For the same molecule, in experiment [3], the half-maximal inhibitory concentration (IC50) stood at 0.243 µg/mL. Also, the IC50 in experiment [4] is 0.0084 µg/mL. Moreover, in [5], the “IC50 (read off the curve)” value is ~0.2 µg/mL. In experiment [6], this molecule yielded a Kd of 535 pM, a koff of 0.000413 s⁻¹ and a kon of 773000 M⁻¹ s⁻¹. In experiment [7], this molecule came in with a Kd of 3800 pM, an off-rate (koff) of 0.00127 s⁻¹ and a kon of 334000 M⁻¹ s⁻¹.

B3: anti-TIGIT×CD96 multispecific molecule BA127 (bispecific antibody, human IgG1, kappa, lambda)
heavy 1: QVQLVQSGAEVKKPGASVKVSCKASGYTFTTYALHWVRQAPGQRLEWMGWINTGSGDTKYSQKFQGRVTITRDTSASTAYMELSSLRSEDTAVYYCARSLGVYYGMDVWGQGTLVTVSSASTKGPSVFPLAPSSKSTSGGTAALGCLVKDYFPEPVTVSWNSGALTSGVHTFPAVLQSSGLYSLSSVVTVPSSSLGTQTYICNVNHKPSNTKVDKRVEPKSCDKTHTCPPCPAPELLGGPDVFLFPPKPKDTLMISRTPEVTCVVVDVSHEDPEVKFNWYVDGVEVHNAKTKPREEQYNSTYRVVSVLTVLHQDWLNGKEYKCKVSNKALPAPIEKTISKAKGQPREPQVYTLPPSREEMTKNQVSLSCAVKGFYPSDIAVEWESNGQPENNYKTTPPVLDSDGSFFLVSKLTVDKSRWQQGNVFSCSVMHEALHNHYTQKSLSLSPG
light 1: not shown
heavy 2: EVQLVQSGAEVKKPGSSVKVSCKASGYTFASYGISWVRQAPGQGLEWMGGITPFFNRVDVAEKFQGRVTITADKSTSTAYIELSSLRSEDTAVYYCARDLRRGGVGDAFDIWGRGTLVTVSSASTKGPSVFPLAPSSKSTSGGTAALGCLVKDYFPEPVTVSWNSGALTSGVHTFPAVLQSSGLYSLSSVVTVPSSSLGTQTYICNVNHKPSNTKVDKRVEPKSCDKTHTCPPCPAPELLGGPDVFLFPPKPKDTLMISRTPEVTCVVVDVSHEDPEVKFNWYVDGVEVHNAKTKPREEQYNSTYRVVSVLTVLHQDWLNGKEYKCKVSNKALPLPEEKTISKAKGQPREPQVYTLPPSREEMTKNQVSLWCLVKGFYPSDIAVEWESNGQPENNYKTTPPVLDSDGSFFLYSKLTVDKSRWQQGNVFSCSVMHEALHNHYTQKSLSLSPG
light 2: QSALTQPRSVSGSPGQSVTISCTGTSPDVGSHAYRSWYQQHPGKAPKLMIYEVSYRPSGVSNRFSGSKSGNTASLTISGLQAEDEADYYCSSYPPSSATVFGAGTKLTVLGQPKAAPSVTLFPPSSEELQANKATLVCLISDFYPGAVTVAWKADSSPVKAGVETTTPSKQSNNKYAASSYLSLTPEQWKSHRSYSCQVTHEGSTVEKTVAPTEC
notes: Anti-CD96 arm = BA139, anti-TIGIT arm = BA150; copies: 1 + 1 + 1 + 1
For the molecule B3, in experiment [8], the 50% inhibitory concentration (IC50) came out at 0.164 µg/mL. In [9], the dissociation constant (Kd) stood at 611 pM, the koff was determined as 0.000385 s⁻¹ and the kon amounted to 631000 M⁻¹ s⁻¹. The “IC50 (read off the curve)” value in experiment [10] is ~0.1 µg/mL.
